From patent US20080311122A1 (AstraZeneca / MedImmune, published 2008)

B1: anti-HMG1 antibody G16 (antibody, V domains shown)
VH: EVQLLESGGGLVQPGGSLRLSCAASGFTFSWYKMTWVRQAPGKGLEWVSSISPSGGFTSYADSVKGRFTISRDNSKNTLYLQMNSLRAEDTAVYYCARDLDIRHAFDIWGQGTMVTVSS
VL: DIQMTQSPGTLSLSPGESGTLSCRASESVSSRHFAWYQQKPGQAPRLLIYGASSRPTGIPDRFSGSGSGTDFTLTLSRLEPEDFAVYFCQYYGSSPYTFGGGTKVEMK
B2: anti-HMG1 antibody S12 (antibody, V domains shown)
VH: EVQLLESGGGLVQPGGSLRLSCAASGFTFSKYIMHWVRQAPGKGLEWVSGIVPSGGLTEYADSVKGRFTISRDNSKNTLYLQMNSLRAEDTATYYCAKEIFGQFDYWGQGTLVTVSS
VL: AQSALTQPPSVSAAPRQRVTISCSGSTSNIGNNAVTWYQYFPGKAPKLLIYSDNQRPSGVPDRFSGSKSGTSASLAITGLQAEDEADYYCQSYDRGLSVVFGGGTKLTVL
B3: anti-HMG1 antibody E11 (antibody, V domains shown)
VH: EVQLLESGGGLVQPGGSLRLSCAASGFTFSRYQMNWVRQAPGKGLEWVSSISPSGGHTHYADSVKGRFTISRDNSKNTLYLQMNSLRAEDTAVYYCAKDGRQGKISTVDHWGQGTLVTVSS
VL: DIQMTQSPGTLSLSPGERATLSCRASQSVRSNFLAWYQQKPGQAPRLLIYGASRRASGIPDRFSGSGFGADFTLSISRLEPEDFAVYYCQQYGSSPNTFGQGSRVEIK
B4: HMGB1/CpG-A complex (other, bovine, UniProt P10103 2-215, looked up)
chain: GKGDPKKPRGKMSSYAFFVQTCREEHKKKHPDASVNFSEFSKKCSERWKTMSAKEKGKFEDMAKADKARYEREMKTYIPPKGETKKKFKDPNAPKRPPSAFFLFCSEYRPKIKGEHPGLSIGDVAKKLGEMWNNTAADDKQPYEKKAAKLKEKYEKDIAAYRAKGKPDAAKKGVVKAEKSKKKKEEEEDEEDEEDEEEEEDEEDEEEEEDDDDE
notes: also called HMGB1/CpG complex; CpG/HMGB1 complex

Columns and labels:
[1] = molecular target: T1, HMG1 B Box peptide amino acids 91-169; test: ELISA, wells coated with HMG1 B Box peptide 91-169 at 10 ug/ml
T1 construct: also called HMG1 peptide 91-169
T1 peptide: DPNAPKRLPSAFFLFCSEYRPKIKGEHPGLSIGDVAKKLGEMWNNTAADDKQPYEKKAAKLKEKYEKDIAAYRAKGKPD
Experimental: (§1) The plate was then blocked with 4% milk powder dissolved in PBS at 37° C. for 1 hour. The blocking solution was removed and replaced with human anti-HMG1 antibodies at various concentrations (see FIGS. 5A-B). […] HRP activity was detected with Sureblue HRP substrate (KPL). Plates were read at 450 nm using a Kinetic Microplate Reader (Molecular Devices). […] After washing and blocking with 1% BSA in PBS, the biotinylated peptides were individually added into the avidin coated wells and incubated for 30 min at room temperature. The serial diluted antibody G4, S16 and S6 at the initial concentration at 10 μg/ml were then transferred into the wells followed by adding mouse anti human IgG-HRP conjugate (Pierce). Detection was accomplished by adding 50 μl of tetramethylbenzidine (TMB) substrate (KPL) and the absorbance was read at […].

[2] = molecular target: T2, HMG1 B Box peptide amino acids 150-183; test: ELISA, wells coated with HMG1 B Box peptide 150-183 at 10 ug/ml
T2 peptide: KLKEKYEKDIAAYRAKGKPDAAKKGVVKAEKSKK
Experimental: as §1

[3] = molecular target: T3, recombinant HMG1 purified from E. coli as a calmodulin binding protein (CBP) fusion protein (human, UniProt A9RA84 1-215 (Papio anubis entry)); test: BIAcore, mAb immobilized, HMG1 injected, steady-state model
T3 construct: also called rHMG1; rHMGB1
T3 sequence: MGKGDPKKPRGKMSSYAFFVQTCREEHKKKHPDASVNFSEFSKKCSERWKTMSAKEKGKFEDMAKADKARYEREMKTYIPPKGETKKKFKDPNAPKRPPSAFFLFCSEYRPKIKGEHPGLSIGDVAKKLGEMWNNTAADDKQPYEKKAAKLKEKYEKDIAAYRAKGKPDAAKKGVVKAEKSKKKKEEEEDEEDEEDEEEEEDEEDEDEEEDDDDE
Experimental: HMG1 Binding Affinity via BIAcore Analysis: All experiments were performed on a BIAcore 3000 instrument (BIAcore, Inc., Piscataway, N.J.). Briefly, each mAb was immobilized to a CM5 sensor chip using a standard amino coupling chemistry. Separately a reference (control) flow cell was also prepared. Two-fold, serial dilutions of HMG1 in instrument buffer were sequentially injected at a slow flow rate over the individual mAb and reference flow-cell surfaces. Following the binding and dissociation of HMG1, the mAbs surfaces were regenerated with a brief pulse of 1M NaCl-50 mM NaOH. At the end of each experiment, the binding curves were evaluated using a steady-state model available through the BIA evaluation software supplied by BIAcore, Inc. (Piscataway, N.J.).

[4] = molecular target: T3, recombinant HMG1 purified from E. coli …; test: cell-based or functional assay
[5] = molecular target: T4, HMGB1 in human brain tissue of multiple sclerosis plaques (human, UniProt P09429 1-215); test: staining of human brain tissue
T4 construct: also called HMGB1 (MS plaques)
T4 sequence (looked up): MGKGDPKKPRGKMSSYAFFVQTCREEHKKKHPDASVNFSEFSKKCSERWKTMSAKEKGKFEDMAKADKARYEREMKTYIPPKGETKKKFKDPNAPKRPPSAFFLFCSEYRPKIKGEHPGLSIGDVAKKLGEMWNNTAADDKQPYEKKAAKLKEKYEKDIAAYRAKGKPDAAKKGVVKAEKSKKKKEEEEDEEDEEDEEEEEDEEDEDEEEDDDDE

[6] = molecular target: T5, HMG1 purified from bovine (calf) thymus (bovine, UniProt P10103 2-215); test: ELISA, wells coated with calf thymus HMGB1 at 5 ug/mL, antibody at 10 ug/mL, anti-human kappa/lambda-HRP, OD 490
T5 construct: also called Calf thymus HMGB1; thymus HMG1
T5 sequence (looked up): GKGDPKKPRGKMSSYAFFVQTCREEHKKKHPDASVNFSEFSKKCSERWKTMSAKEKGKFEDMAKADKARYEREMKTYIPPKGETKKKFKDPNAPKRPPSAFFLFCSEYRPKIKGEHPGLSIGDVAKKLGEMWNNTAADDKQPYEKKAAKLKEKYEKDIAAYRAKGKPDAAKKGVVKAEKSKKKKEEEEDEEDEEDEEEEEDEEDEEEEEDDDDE
Experimental: Binding to HMG1 vs. HMG2: Ultra high-binding ELISA plates (ThermoLab systems, #3855) were coated with either 5 ug/mL of Calf thymus HMGB1 or HMBG2 diluted in 10 mM Phosphate buffered saline (PBS), pH 7.2 and incubate overnight at 4 degrees. The plates were washed twice with Ca and Mg free PBS and 100 microliters of anti-HMGB1 antibody diluted in 10 mM PBS, pH 7.2+1% bovine serum albumin (BSA) to a final concentration of 10 ug/mL was added to each well and the plates were incubated 1 hour at room temperature. The wells were washed three times with 100 μl of PBS, pH 7.2. HRP labeled goat-anti-human IgG Kappa-chain (KPL, #14-10-10) and goat-anti-human IgG Lambda-chain (KPL, #14-10-11) were diluted in 10 mM PBS+1% BSA 1:1000 and 100 μl were added to each well and incubated for 1 hour at room temperature. The wells were then washed three times with 100 μl of PBS, pH 7.2. OPD substrate (Pierce chemical company, #34006) was prepared following the manufacturers instructions and 100 μl of prepared substrate was added to each well and the plates incubated at room temperature in the dark for 20-30 minutes. The reaction was stopped with the addition of 100 μl of 2M H₂SO₄, and the plates read on a plate reader at a wavelength of 490 nm.

[7] = molecular target: T2, HMG1 B Box peptide amino acids 150-183; test: ELISA, wells coated with HMG1 B Box peptide 150-183 at 10 ug/ml, anti-human IgG-HRP, OD 450
Experimental: as §1

[8] = molecular target: T1, HMG1 B Box peptide amino acids 91-169; test: ELISA, wells coated with HMG1 B Box peptide 91-169 at 10 ug/ml, anti-human IgG-HRP, OD 450
Experimental: as §1

[9] = molecular target: T6, recombinant rat HMGB-1, Europium-labeled (rat, UniProt P63159 1-215, limits assumed, Europium label, molar ratio of HMGB-1 to Eu 1:5); test: inhibition of binding of Eu-labeled HMGB-1 to THP-1 cells
T6 construct: also called Europium-labeled HMGB-1; recombinant HMG1 (Thp-1 assay)
T6 sequence (looked up): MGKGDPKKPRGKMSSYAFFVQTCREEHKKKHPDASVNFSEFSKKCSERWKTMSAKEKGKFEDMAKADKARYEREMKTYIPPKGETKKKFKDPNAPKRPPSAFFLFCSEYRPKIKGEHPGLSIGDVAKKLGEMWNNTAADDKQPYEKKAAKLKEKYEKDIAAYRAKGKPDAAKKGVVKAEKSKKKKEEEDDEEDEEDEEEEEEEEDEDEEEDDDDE
Experimental: HMG1 binding to THP-1 Cells: Recombinant rat HMGB-1 was labeled using Eu-labelling Kit from PerkinElmer. Molar ratio of HMGB-1 to Eu is 1:5. THP-1 were cultured as the protocol from ATCC. Cells were harvested and suspended at concentration 1×10⁶/ml in assay buffer containing 1×DELFIA L*R binding buffer (PerkinElmer), 50% of DELFIA stabilizer (PerkinElmer) and 0.05% of sodium azide. 100 μl of cells (1×10⁵) was added into wells in 96 well cell culture plate. The plate was incubated with gentle shaking at 4° C. for one hour. 100 μl of assay buffer containing 2 nM of Europium-labeled HMGB-1 mixed with various concentrations (333, 166.5, 83.25, 41.6, 20.8, 10.4 and 5.2 nM) of human anti-HMGB1 antibodies E11 or G2 or soluble human RAGE-Fc, were added into each wells respectively. After one hour incubation with gentle shaking at 4° C., the cells were washed four times with 1×L*R wash buffer (PerkinElmer) by centrifuging at 1200 rpm×5 min. 200 μl of enhancement solution was added into each well to dissociate and enhance Eu fluorescence at 615 nm. The fluorescence was measured with Wallac Victor Fluorometer. Assay was performed in triplicate and human antibody R3-47 was used the negative isotype control.

[10] = molecular target: T3, recombinant HMG1 purified from E. coli …; test: ELISA format 'Soluble HMG1/Captured Antibody' (squares): antibody captured on anti-human IgG Fc, HMG1 in solution
Experimental: Sandwich ELISA (soluble HMG1): Immunoplates (EIA/RIA plate, High binding, Costar) were coated with anti human IgG Fc at 10 μg/ml in PBS (pH 7.2) and incubated at 4° C. overnight. The coating reagent was removed and the plates were rinsed briefly with PBS. The plates were then blocked with 4% milk for 1 hour at 37° C. and rinsed with PBS. The anti-HMG1 antibodies were diluted in 4% milk. For serial dilutions, the antibodies were used at a starting concentration of 20 μg/ml. The diluted anti-HMG1 antibodies were then added into plate and incubated for 1 hr at 37° C. The plate was then washed 10 times with PBST (PBS/0.1% tween 20) and incubate with antigen (HMGB1, 2 μg/ml; or 0.7 μg/ml for native HMGB1) in 4% milk and incubated at 37° C. for 1 h. The plate was then wash 10 times and incubated with mouse anti-HMGB1, 1 μg/ml in 4% milk at 37° C. for 1 h. The plate was washed 10 times and incubated with anti-mouse IgG-HRP at 1:1000 at 37° C. for 1 h. The plate was then washed and developed. HRP activity was detected with Sureblue HRP substrate (KPL). Plates were read at 450 nm using a Kinetic Microplate Reader (Molecular Devices).

[11] = molecular target: T7, activated HMG1 prepared from LPS stimulated THP-1 cells (human, UniProt P09429 1-215); test: cell-based or functional assay
T7 sequence (looked up): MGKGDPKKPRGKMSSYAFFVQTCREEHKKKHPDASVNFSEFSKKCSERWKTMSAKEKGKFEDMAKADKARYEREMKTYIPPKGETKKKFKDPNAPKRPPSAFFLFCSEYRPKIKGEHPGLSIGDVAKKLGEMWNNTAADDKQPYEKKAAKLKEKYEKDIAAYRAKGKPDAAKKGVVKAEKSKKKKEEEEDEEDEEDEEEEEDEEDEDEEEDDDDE

[12] = molecular target: T8, Mouse RAGE/Fc (mouse, UniProt Q62151 24-342); test: ELISA, HMGB1 titrated on RAGE-Fc in the presence of 0.03 µM CpG-A (right panel)
T8 construct: also called RAGE/Fc fusion; not shown: Fc part not described
T8 sequence (Q62151 24-342): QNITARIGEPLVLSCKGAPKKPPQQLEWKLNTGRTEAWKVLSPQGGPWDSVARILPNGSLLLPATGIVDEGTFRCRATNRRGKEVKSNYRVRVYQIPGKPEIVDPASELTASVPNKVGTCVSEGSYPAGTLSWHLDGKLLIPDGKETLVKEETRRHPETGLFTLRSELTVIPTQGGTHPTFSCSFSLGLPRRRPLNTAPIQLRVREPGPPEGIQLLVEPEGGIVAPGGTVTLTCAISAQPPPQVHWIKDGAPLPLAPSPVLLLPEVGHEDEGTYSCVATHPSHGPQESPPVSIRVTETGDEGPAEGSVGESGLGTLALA

binding result [1]	binding result [2]	Kd [3]	IC50, inhibition of HMG1 stimulated NO release from macrophages [4]	IC50, inhibition of rHMG1 stimulated IL-6 release from human PBMC [4]	binding result [5]	binding result [6]	binding result [7]	binding result [8]	IC50 [9]	EC50 (read off the curve) [10]	IC50, inhibition of native activated HMG1 stimulated IL-6 release from human PBMC [11]	EC50 (read off the curve) [12]	Binder
no binding (tested: 10 ug/ml (log 1.00))	no binding (tested: 10 ug/ml (log 1.00))	22 nM	22 µg/mL	1.06 nM	binds	–	–	–	–	–	–	–	B1
–	–	–	–	1.67 nM	–	binds	binds	binds	–	–	–	–	B2
no binding (tested: 10 ug/ml (log 1.00))	no binding (tested: 10 ug/ml (log 1.00))	–	101 µg/mL	1.22 nM	–	binds	–	–	48.1 nM	~0.4 µg/mL	1.73 nM	–	B3
–	–	–	–	–	–	–	–	–	–	–	–	~100 nM	B4
